Laboratory results taken from patent US20200115460A1 (TEIJIN PHARMA, published 2020).

Assays:
[1] = target: T1, Substitution 3 of the CR domain (human IGF-I receptor G315S/S316T, FLAG tag) (human, UniProt P08069 31-1367); assay: Cell ELISA on HEK 293T cells expressing the substitution
T1 construct: Expressed on transfected HEK 293T cells
Method: (§1) HEK 293T cells were seeded in a 10-cm dish coated with poly-D-lysine at 9×10⁶ cells/well. On the next day, each plasmid DNA was transfected into the cells by lipofection. On the following day, the HEK 293T cells were detached with 0.25% trypsin/EDTA and were suspended in a broth. The HEK 293T cells were added to a 96-well plate (coated with poly-D-lysine) at a concentration of 0.8×10⁵ cells/well and were incubated at 37° C. under conditions of 5% CO₂ overnight. The medium was removed from the 96-well plate, and the cells were immobilized with a 10% buffered formalin (Mildform® 10 NM, Wako). The 10% buffered formalin was replaced with a blocking buffer (3% BSA/PBS/sodium azide), and the plate was used in ELISA.
(§2) After washing with a washing liquid twice, anti-mouse-IgG antibody-HRP conjugate solutions (50 μL) adjusted to predetermined concentrations with 0.1% skimmed milk/3% BSA/PBS were added to respective wells and were subjected to reaction at room temperature for about 1 hour. After washing with a washing liquid twice, 100 μL of a substrate (TMB) was added to each well to start the reaction. After about 30 minutes, 100 μL of 0.5 M sulfuric acid was added to each well to stop the reaction, and the absorbances at 450 nm was measured. The value of the absorbance at 450 nm was evaluated as the avidity.

[2] = target: T2, hINSR[L1-L2]/hIGFIR (human); assay: Cell ELISA, 10 nM antibody, fixed P3U1 cells expressing the chimera
T2 construct: Chimeric receptor on transfected P3U1 cells
Method: (§3) The gene of hIGFIR[L1-L2]/hINSR as Substitution 1 is shown in SEQ ID NO: 23; the gene of hINSR[L1-L2]/hIGFIR as Substitution 2 is shown in SEQ ID NO: 24; the gene of hINSR[L1]/hIGFIR as Substitution 3 is shown in SEQ ID NO: 25; and the gene of hINSR[L2]/hIGFIR as Substitution 4 is shown in SEQ ID NO: 26. After the lipofection, the P3U1 cells were cultured at least overnight and were added to a 96-well plate (coated with poly-D-lysine) at a concentration of 0.8×10⁵ cells/well and immobilized with 10% buffered formalin (Mildform® 10 NM, Wako), followed by blocking with phosphate buffer containing 3% BSA. The plate was used in ELISA.
(§4) In ELISA, 30 μL of an antibody solution adjusted to 10 nM with 0.1% skimmed milk/3% BSA/PBS was added to each well and was subjected to reaction at room temperature for about 1.5 hours. After washing with a washing liquid twice, 30 μL of an anti-mouse-IgG antibody-HRP conjugate solution adjusted to 5 nM with 0.1% skimmed milk/3% BSA/PBS was added to each well and was subjected to reaction at room temperature for about 1 hour. After washing with a washing liquid twice, 50 μL of a substrate (TMB) was added to each well to start the reaction. After about 20 minutes, 50 μL of 0.5 M sulfuric acid was added to each well to stop the reaction. The absorbances at 450 nm and 550 nm were measured, and the difference between absorbance values at 450 nm and 550 nm was calculated. The avidity was calculated based on the difference between absorbance values at 450 nm and 550 nm for cells (Mock cells, SEQ ID NO: 22) transfected with a vector not containing the gene of each substitution as a standard value 1 (Table 3).

[3] = target: T3, hIGFIR[L1-L2]/hINSR (human); assay: as above
T3 construct: Chimeric receptor on transfected P3U1 cells
Method: as §3, §4

[4] = target: T4, hINSR[L2]/hIGFIR (human); assay: as above
T4 construct: Chimeric receptor on transfected P3U1 cells
Method: as §3, §4

[5] = target: T5, hINSR[L1]/hIGFIR (human); assay: as above
T5 construct: Chimeric receptor on transfected P3U1 cells
Method: as §3, §4

[6] = target: T6, human IGF-I receptor (human, UniProt P08069 31-1367); assay: Cell ELISA, fixed cells expressing the receptor
T6 construct: Expressed on transfected P3U1 or HEK 293T cells, or native on human myoblasts; also called hIGFIR; IGF-I receptor of human (NP_000866)
Method: In ELISA, antibody solutions (30 μL) adjusted to predetermined concentrations with 0.1% skimmed milk/3% BSA/PBS were added to respective wells and were subjected to reaction at room temperature for about 1 hour. After washing with a washing liquid (tris buffer containing Tween) twice, anti-mouse-IgG antibody-ALP conjugate solutions (30 μL) adjusted to predetermined concentrations with 0.1% skimmed milk/3% BSA/PBS were added to respective wells and were subjected to reaction at room temperature for about 1 hour. After washing with a washing liquid twice, 100 μL of a substrate (PNPP) was added to each well to start the reaction.

[7] = target: T7, wild-type rat IGF-I receptor (FLAG tag, Example 7) (rat, UniProt P24062 31-1370); assay: Cell ELISA on HEK 293T cells expressing the receptor
T7 construct: Expressed on transfected HEK 293T cells
T7 sequence (P24062 other isoform, or with tags, fused parts or gaps limits assumed): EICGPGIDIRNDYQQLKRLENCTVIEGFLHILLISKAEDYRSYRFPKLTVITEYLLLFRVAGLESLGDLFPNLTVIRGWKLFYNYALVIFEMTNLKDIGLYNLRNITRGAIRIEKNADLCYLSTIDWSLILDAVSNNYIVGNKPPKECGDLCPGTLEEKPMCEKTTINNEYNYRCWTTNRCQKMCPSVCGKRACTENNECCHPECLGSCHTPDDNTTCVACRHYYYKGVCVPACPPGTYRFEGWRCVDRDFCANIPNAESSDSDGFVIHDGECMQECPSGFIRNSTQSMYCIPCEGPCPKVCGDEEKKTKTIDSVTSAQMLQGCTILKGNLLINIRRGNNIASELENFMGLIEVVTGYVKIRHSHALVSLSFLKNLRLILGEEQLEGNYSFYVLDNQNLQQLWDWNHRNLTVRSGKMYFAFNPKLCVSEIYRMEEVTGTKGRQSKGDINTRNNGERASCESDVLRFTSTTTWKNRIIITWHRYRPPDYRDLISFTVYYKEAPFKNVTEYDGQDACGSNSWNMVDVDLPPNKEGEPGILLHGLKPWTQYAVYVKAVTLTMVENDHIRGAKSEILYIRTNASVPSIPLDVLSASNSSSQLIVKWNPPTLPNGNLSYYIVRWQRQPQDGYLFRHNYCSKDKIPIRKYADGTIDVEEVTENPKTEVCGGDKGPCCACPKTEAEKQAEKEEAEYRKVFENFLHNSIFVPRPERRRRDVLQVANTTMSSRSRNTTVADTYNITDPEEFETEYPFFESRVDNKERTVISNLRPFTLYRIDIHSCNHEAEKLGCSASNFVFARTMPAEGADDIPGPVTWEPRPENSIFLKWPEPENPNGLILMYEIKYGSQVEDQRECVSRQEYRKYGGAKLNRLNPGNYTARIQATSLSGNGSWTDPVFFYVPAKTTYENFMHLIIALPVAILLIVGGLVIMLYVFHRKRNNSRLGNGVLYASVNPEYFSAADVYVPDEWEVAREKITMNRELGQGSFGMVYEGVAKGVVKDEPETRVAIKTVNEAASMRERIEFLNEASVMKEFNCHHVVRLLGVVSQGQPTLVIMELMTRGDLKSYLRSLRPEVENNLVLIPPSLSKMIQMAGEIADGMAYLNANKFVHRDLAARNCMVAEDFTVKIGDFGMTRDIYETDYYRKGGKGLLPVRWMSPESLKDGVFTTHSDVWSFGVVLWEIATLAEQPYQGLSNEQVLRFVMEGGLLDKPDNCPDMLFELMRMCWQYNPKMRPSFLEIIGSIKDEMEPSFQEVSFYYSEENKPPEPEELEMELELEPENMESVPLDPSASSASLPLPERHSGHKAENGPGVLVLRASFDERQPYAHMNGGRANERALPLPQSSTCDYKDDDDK
Method: as §1, §2

[8] = target: T8, recombinant human IGF-I receptor His tag (305-GR-050, R&D SYSTEMS) (human, UniProt P08069 31-932, limits assumed); assay: SPR, Biacore T200
T8 construct: Bought protein, captured on an anti-His antibody chip; also called IGF-IR-His; not shown: His tag
Method: The sensor chip CM3 immobilized with the anti-His monoclonal antibody was set to Biacore T200, the reaction temperature was set to 36° C., and a running buffer (HBS-EP+, BR-1006-69, GE) was fed at a flow rate 30 μL/min. The amount of the binding ligand was set to about 100 RU, and IGF-IR-His (0.5 to 2×10⁻⁸ mol/L) was added to the sensor chip to be captured by the anti-His monoclonal antibody. Ctrl IgG2a (10 nmol/L) was allowed to react for 1 minute, and HBS-EP+ was fed at a flow rate of 30 μL/min for at least 10 minutes. The analyte and HBS-EP+ were added to flow cells (1 and 2) and flow cells (3 and 4), respectively.
The reaction conditions were set to a binding time of 600 seconds and a dissociation time of 600 seconds. After completion of the reaction, washing was performed with regeneration buffer 1 (0.2% SDS), regeneration buffer 2 (100 mmol/L Tris-HCl (pH 8.5), 1 mol/L NaCl, 15 mmol/L MgCl₂), and regeneration buffer 3 (10 mmol/L glycine-HCl (pH 1.5)) for 1 minute each at a flow rate of 30 μL/min.

binding result [1]: no binding (tested: 1 nM) | Avidity (absorbance difference 450-550 nm, Mock cells = 1) [2]: 1.5 fold of Mock cells | Avidity (absorbance difference 450-550 nm, Mock cells = 1) [3]: 5.5 fold of Mock cells | Avidity (absorbance difference 450-550 nm, Mock cells = 1) [4]: 5.6 fold of Mock cells | Avidity (absorbance difference 450-550 nm, Mock cells = 1) [5]: 5.7 fold of Mock cells | avidity (absorbance difference 405-550 nm, Mock cells = 1) at 0.5 nM [6]: 2.9 fold of Mock cells | avidity (absorbance difference 405-550 nm, Mock cells = 1) at 5 nM [6]: 3.7 fold of Mock cells | binding result [7]: no binding (tested: 1 nM) | KD relative to that of IGF-I [8]: < 0.02 fold of IGF-I | ka relative to that of IGF-I [8]: ~0.2 fold of IGF-I | kd relative to that of IGF-I [8]: < 0.001 fold of IGF-I
B1: IGF11-16 (antibody, mouse IgG1, kappa, V domains shown)
VH: QIQLQQPGAELVKPGASVKLSCKAPGYTFTSYWMHWVKQRPGQGLEWIGETNPSNSVTNYNEKFKSKATLTVDKSSSTAYMQLSSLTSEDSAVYYCTIGRGRGFAYWGQGTLVTVSA
VL: DIQMNQSPSSLSASLGDTITITCRASQNINFWLSWCQQKPGNIPKLLIYKASNLHTGVPSRFSGSGSGTDFTLTISSLQPEDIATYYCLQGQSYPYTFGGGTKLEIKR
notes: no cleavage site is stated; also called IGF-I receptor agonist antibody; IGF11-16 antibody
